# According to IntAct's records for PubMed 25114243:
# B1: Ras-related protein Rab-5C (Homo sapiens), P51148 (parent)
# chain: MAGRGGAARPNGPAAGNKICQFKLVLLGESAVGKSSLVLRFVKGQFHEYQESTIGAAFLTQTVCLDDTTVKFEIWDTAGQERYHSLAPMYYRGAQAAIVVYDITNTDTFARAKNWVKELQRQASPNIVIALAGNKADLASKRAVEFQEAQAYADDNSLLFMETSAKTAMNVNEIFMAIAKKLPKNEPQNATGAPGRNRGVDLQENNPASRSQCCSN
# B2: Ras-related protein Rab-5C (Homo sapiens), P51148 (parent)
# chain: B1 chain
# partner: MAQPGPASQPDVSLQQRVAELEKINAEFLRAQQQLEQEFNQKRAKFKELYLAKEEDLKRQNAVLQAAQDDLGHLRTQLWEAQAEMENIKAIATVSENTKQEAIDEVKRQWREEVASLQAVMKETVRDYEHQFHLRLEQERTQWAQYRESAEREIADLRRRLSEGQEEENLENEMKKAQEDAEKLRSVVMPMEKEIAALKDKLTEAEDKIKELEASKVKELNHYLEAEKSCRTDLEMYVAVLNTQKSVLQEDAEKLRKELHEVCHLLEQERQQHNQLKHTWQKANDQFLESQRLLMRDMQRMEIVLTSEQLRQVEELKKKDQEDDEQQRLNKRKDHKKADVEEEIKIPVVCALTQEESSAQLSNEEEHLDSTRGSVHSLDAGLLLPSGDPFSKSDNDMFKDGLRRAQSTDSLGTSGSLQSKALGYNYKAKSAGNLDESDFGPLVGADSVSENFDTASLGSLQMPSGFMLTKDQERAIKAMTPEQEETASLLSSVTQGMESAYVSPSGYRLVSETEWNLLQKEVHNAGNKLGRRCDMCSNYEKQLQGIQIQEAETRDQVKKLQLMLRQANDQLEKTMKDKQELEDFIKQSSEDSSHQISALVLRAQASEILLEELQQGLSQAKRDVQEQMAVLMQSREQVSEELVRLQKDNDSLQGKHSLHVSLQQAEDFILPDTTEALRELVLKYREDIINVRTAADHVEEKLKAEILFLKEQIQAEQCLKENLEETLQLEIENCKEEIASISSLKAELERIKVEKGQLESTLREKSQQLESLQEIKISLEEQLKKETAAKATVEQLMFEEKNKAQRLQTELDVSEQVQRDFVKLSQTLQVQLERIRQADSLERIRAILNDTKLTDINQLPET
# B3: Ras-related protein Rab-5C (Homo sapiens), P51148 (parent)
# chain: B1 chain
# partner: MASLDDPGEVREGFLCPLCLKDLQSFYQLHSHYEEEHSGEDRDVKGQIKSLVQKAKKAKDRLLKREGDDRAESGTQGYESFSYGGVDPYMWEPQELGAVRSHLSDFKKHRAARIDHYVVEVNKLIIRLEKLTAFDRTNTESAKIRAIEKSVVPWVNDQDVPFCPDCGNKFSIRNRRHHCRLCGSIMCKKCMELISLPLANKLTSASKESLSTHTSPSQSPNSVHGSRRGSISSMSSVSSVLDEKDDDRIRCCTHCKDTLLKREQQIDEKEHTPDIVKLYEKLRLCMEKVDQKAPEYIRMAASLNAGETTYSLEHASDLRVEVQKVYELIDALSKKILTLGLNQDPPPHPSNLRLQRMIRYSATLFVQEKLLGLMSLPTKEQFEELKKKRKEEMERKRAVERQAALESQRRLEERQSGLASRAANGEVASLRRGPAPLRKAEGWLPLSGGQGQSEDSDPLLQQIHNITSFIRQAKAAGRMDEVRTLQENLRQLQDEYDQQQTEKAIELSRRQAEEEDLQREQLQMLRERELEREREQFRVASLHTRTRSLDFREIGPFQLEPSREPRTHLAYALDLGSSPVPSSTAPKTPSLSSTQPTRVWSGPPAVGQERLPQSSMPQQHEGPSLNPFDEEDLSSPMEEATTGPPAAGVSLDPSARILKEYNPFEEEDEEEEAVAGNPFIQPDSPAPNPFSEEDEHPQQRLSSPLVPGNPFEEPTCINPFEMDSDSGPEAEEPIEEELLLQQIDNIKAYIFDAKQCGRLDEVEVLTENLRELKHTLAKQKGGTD
# Variants of: B1
# Conditions: with eea1_human EEA1, Q15075
# Sequence of eea1_human EEA1, Q15075 (Q15075 whole entry): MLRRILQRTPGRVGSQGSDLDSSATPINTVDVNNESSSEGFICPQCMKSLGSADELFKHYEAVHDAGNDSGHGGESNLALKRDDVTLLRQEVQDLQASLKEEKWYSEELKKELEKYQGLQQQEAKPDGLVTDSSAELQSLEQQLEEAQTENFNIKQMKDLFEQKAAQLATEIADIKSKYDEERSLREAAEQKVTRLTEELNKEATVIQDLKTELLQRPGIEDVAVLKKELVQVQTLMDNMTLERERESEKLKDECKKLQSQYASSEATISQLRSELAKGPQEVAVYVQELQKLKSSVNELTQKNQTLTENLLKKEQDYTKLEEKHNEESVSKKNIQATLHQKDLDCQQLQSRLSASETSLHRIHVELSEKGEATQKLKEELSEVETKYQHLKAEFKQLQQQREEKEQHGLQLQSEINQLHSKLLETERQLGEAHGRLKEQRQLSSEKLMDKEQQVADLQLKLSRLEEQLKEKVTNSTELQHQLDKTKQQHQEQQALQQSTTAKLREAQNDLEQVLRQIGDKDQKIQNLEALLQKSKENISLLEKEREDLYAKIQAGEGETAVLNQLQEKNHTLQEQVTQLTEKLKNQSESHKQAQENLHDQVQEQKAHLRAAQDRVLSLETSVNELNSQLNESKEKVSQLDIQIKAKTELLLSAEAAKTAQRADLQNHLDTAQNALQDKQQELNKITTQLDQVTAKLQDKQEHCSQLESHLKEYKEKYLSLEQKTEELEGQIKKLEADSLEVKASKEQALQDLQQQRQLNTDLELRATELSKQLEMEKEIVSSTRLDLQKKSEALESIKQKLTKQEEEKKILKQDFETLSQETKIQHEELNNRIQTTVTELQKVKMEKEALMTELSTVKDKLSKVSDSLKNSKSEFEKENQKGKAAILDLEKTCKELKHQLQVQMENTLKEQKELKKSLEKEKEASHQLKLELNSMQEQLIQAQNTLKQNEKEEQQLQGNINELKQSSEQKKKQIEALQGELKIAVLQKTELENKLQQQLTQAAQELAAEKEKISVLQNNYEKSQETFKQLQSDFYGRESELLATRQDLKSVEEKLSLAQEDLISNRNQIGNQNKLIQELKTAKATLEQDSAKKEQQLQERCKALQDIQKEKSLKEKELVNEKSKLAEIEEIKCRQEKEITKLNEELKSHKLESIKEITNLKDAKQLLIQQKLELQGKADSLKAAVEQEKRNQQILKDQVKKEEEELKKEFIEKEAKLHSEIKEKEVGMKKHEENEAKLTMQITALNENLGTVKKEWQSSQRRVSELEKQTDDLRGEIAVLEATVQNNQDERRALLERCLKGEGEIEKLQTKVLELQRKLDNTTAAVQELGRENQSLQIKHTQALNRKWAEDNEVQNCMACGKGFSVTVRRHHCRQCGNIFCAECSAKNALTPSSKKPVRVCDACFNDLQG
row,Variant,effect of a mutation on the interaction
1,R92A,decreasing interaction

# Variants of: B2
# Conditions: with rabe1_human RABEP1, Q15276
row,Variant,effect of a mutation on the interaction
1,R92A,with no effect

# Variants of: B3
# Conditions: with rbns5_human RBSN
row,Variant,effect of a mutation on the interaction
1,R92A,decreasing interaction
